Data as given in the RNAGym collection of RNA variant scans (doi:10.7554/elife.90254).

B1: OR4K15 (parent)
chain: GUUAACGGUCAUAGGCCAUGGAAACUAGGAGCACCAUUUCGCUGCCAGUGAAGAAAUGAACAAAGAAAAUCUGGGCCAGGCAGGCAUCAAAAGAAAUAGUCUUGCGCUCAACCAGAAAGUCUGUAAUCAUUUUAAGGGUA

Variants of: B1
Test: self-cleavage, relative activity (ratio to wild type); higher = more cleavage; in vitro, sequencing; the parent is a self-cleaving ribozyme
Work on GUUAACGGUCAUAGGCCAUGGAAACUAGGAGCACCAUUUCGCUGCCAGUGAAGAAAUGAACAAAGAAAAUCUGGGCCAGGCAGGCAUCAAAAGUAAUAGUCUUGCGCUCAACCAGAAAAUCUGUAAUCAUUUUAAGGGUA [A94U G119A] yielded a self-cleavage of 2.29.
GUUAACGGUCAUAGGCCAUGGAAACUAGGAGCACCAUUUCGCUGCCAGUGAAGAAAUGAACAAAGAAAAUCUGGGCCAGGCAGGCAUCAAAAGUAAUAGUCUUGCGCUCAACCAGAAAGUCUGUCAUCAUUUUAAGGGUA [A94U A125C] showed a self-cleavage of 1.08.
With GUUAACGGUCAUAGGCCAUGGAAACUAGGAGCACCAUUUCGCUGCCAGUGAAGAAAUGAACAAAGAAAAUCUGGGCCAGGCAGGCAUCAAAAGGAACAGUCUUGCGCUCAACCAGAAAGUCUGUAAUCAUUUUAAGGGUA [A94G U97C] the self-cleavage was 1.12.
GUUAACGGUCAUAGGCCAUGGAAACUAGGAGCACCAUUUCGCUGCCAGUGAAGAAAUGAACAAAGAAAAUCUGGGCCAGGCAGGCAUCAAAAGUAAUAGUCUUGCGCUCAGCCAGAAAGUCUGUAAUCAUUUUAAGGGUA [A94U A111G] gave a self-cleavage of 0.02.
For GUUAACGGUCAUAGGCCAUGGAAACUAGGAGCACCAUUUCGCUGCCAGUGAAGAAAUGAACAAAGAAAAUCUGGGCCAGGCAGGCAUCAAAAGUAAUAGUCUUGCGCUCAUCCAGAAAGUCUGUAAUCAUUUUAAGGGUA [A94U A111U], the self-cleavage was 0.12.
GUUAACGGUCAUAGGCCAUGGAAACUAGGAGCACCAUUUCGCUGCCAGUGAAGAAAUGAACAAAGAAAAUCUGGGCCAGGCAGGCAUCAAAAGUAAUAGUCUUGCGCUCAACCAGAAAGUCCGUAAUCAUUUUAAGGGUA [A94U U122C] gave a self-cleavage of 2.05.
With GUUAACGGUCAUAGGCCAUGGAAACUAGGAGCACCAUUUCGCUGCCAGUGAAGAAAUGAACAAAGAAAAUCUGGGCCAGGCAGGCAUCAAAAGACGUAGUCUUGCGCUCAACCAGAAAGUCUGUAAUCAUUUUAAGGGUA [A95C A96G] the self-cleavage was 1.13.
GUUAACGGUCAUAGGCCAUGGAAACUAGGAGCACCAUUUCGCUGCCAGUGAAGAAAUGAACAAAGAAAAUCUGGGCCAGGCAGGCAUCAAAAGGAAUAGUCUUGCGCUCAACCAGAAAGCCUGUAAUCAUUUUAAGGGUA [A94G U120C] gave a self-cleavage of 1.02.
GUUAACGGUCAUAGGCCAUGGAAACUAGGAGCACCAUUUCGCUGCCAGUGAAGAAAUGAACAAAGAAAAUCUGGGCCAGGCAGGCAUCAAAAGUAAUAGUCUCGCGCUCAACCAGAAAGUCUGUAAUCAUUUUAAGGGUA [A94U U103C] gave a self-cleavage of 0.46.
GUUAACGGUCAUAGGCCAUGGAAACUAGGAGCACCAUUUCGCUGCCAGUGAAGAAAUGAACAAAGAAAAUCUGGGCCAGGCAGGCAUCAAAAGUAAUGGUCUUGCGCUCAACCAGAAAGUCUGUAAUCAUUUUAAGGGUA [A94U A98G] showed a self-cleavage of 1.06.
Variant GUUAACGGUCAUAGGCCAUGGAAACUAGGAGCACCAUUUCGCUGCCAGUGAAGAAAUGAACAAAGAAAAUCUGGGCCAGGCAGGCAUCAAAAGUAAUAGUCUUGCGUUCAACCAGAAAGUCUGUAAUCAUUUUAAGGGUA [A94U C107U] has a self-cleavage of 0.01.
With GUUAACGGUCAUAGGCCAUGGAAACUAGGAGCACCAUUUCGCUGCCAGUGAAGAAAUGAACAAAGAAAAUCUGGGCCAGGCAGGCAUCAAAAGGAAUAGUCUUGCGCUCAACCAGAAAGUCUGUAAUCAUUUUUAGGGUA [A94G A134U] the self-cleavage was 1.58.
With GUUAACGGUCAUAGGCCAUGGAAACUAGGAGCACCAUUUCGCUGCCAGUGAAGAAAUGAACAAAGAAAAUCUGGGCCAGGCAGGCAUCAAAAGUAAUAGUCUUGCGCUCAACCAGAAGGUCUGUAAUCAUUUUAAGGGUA [A94U A118G] the self-cleavage was 1.51.
GUUAACGGUCAUAGGCCAUGGAAACUAGGAGCACCAUUUCGCUGCCAGUGAAGAAAUGAACAAAGAAAAUCUGGGCCAGGCAGGCAUCAAAAGUAAUAGUCUUGCGCUCAACCAGAACGUCUGUAAUCAUUUUAAGGGUA [A94U A118C] gave a self-cleavage of 1.53.
Work on GUUAACGGUCAUAGGCCAUGGAAACUAGGAGCACCAUUUCGCUGCCAGUGAAGAAAUGAACAAAGAAAAUCUGGGCCAGGCAGGCAUCAAAAGGAAUAGUCUUGCACUCAACCAGAAAGUCUGUAAUCAUUUUAAGGGUA [A94G G106A] yielded a self-cleavage of 0.
Work on GUUAACGGUCAUAGGCCAUGGAAACUAGGAGCACCAUUUCGCUGCCAGUGAAGAAAUGAACAAAGAAAAUCUGGGCCAGGCAGGCAUCAAAAGGAAUAGUCUUGUGCUCAACCAGAAAGUCUGUAAUCAUUUUAAGGGUA [A94G C105U] yielded a self-cleavage of 0.38.
In the case of GUUAACGGUCAUAGGCCAUGGAAACUAGGAGCACCAUUUCGCUGCCAGUGAAGAAAUGAACAAAGAAAAUCUGGGCCAGGCAGGCAUCAAAAGUAAUAGUCUUGCGCUCAACCAGAAAGUCUGUAAUCAUUUUAAGGGUA [A94U], the self-cleavage is reported as 1.08.
With GUUAACGGUCAUAGGCCAUGGAAACUAGGAGCACCAUUUCGCUGCCAGUGAAGAAAUGAACAAAGAAAAUCUGGGCCAGGCAGGCAUCAAAAGGAAUAGUCUUGCGCUCAACCAGAAAGUCUGCAAUCAUUUUAAGGGUA [A94G U124C] the self-cleavage was 0.21.
GUUAACGGUCAUAGGCCAUGGAAACUAGGAGCACCAUUUCGCUGCCAGUGAAGAAAUGAACAAAGAAAAUCUGGGCCAGGCAGGCAUCAAAAGGAAUAGUCAUGCGCUCAACCAGAAAGUCUGUAAUCAUUUUAAGGGUA [A94G U102A] showed a self-cleavage of 0.96.
Variant GUUAACGGUCAUAGGCCAUGGAAACUAGGAGCACCAUUUCGCUGCCAGUGAAGAAAUGAACAAAGAAAAUCUGGGCCAGGCAGGCAUCAAAAGGAAUAGUAUUGCGCUCAACCAGAAAGUCUGUAAUCAUUUUAAGGGUA [A94G C101A] has a self-cleavage of 0.3.
With GUUAACGGUCAUAGGCCAUGGAAACUAGGAGCACCAUUUCGCUGCCAGUGAAGAAAUGAACAAAGAAAAUCUGGGCCAGGCAGGCAUCAAAAGUAAUAGUCUUGCGCUCAACCAGAAAGUCUGUAAUCAUUUUAGGGGUA [A94U A135G] the self-cleavage was 2.33.
GUUAACGGUCAUAGGCCAUGGAAACUAGGAGCACCAUUUCGCUGCCAGUGAAGAAAUGAACAAAGAAAAUCUGGGCCAGGCAGGCAUCAAAAGGAAUAGUCUUGCGCUCAACCAGAAAGUCUGUAAUCAUUCUAAGGGUA [A94G U132C] showed a self-cleavage of 1.52.
Variant GUUAACGGUCAUAGGCCAUGGAAACUAGGAGCACCAUUUCGCUGCCAGUGAAGAAAUGAACAAAGAAAAUCUGGGCCAGGCAGGCAUCAAAAGAGUUAGUCUUGCGCUCAACCAGAAAGUCUGUAAUCAUUUUAAGGGUA [A95G A96U] has a self-cleavage of 0.7.
Variant GUUAACGGUCAUAGGCCAUGGAAACUAGGAGCACCAUUUCGCUGCCAGUGAAGAAAUGAACAAAGAAAAUCUGGGCCAGGCAGGCAUCAAAAGUAAUAGCCUUGCGCUCAACCAGAAAGUCUGUAAUCAUUUUAAGGGUA [A94U U100C] has a self-cleavage of 2.56.
With GUUAACGGUCAUAGGCCAUGGAAACUAGGAGCACCAUUUCGCUGCCAGUGAAGAAAUGAACAAAGAAAAUCUGGGCCAGGCAGGCAUCAAAAGGAAUAGUCUUGCGCUCAACCAGAAAGUCUGUAAUCAUUUUAAGGGUU [A94G A140U] the self-cleavage was 0.72.
Work on GUUAACGGUCAUAGGCCAUGGAAACUAGGAGCACCAUUUCGCUGCCAGUGAAGAAAUGAACAAAGAAAAUCUGGGCCAGGCAGGCAUCAAAAGUAAUAGUCUUGCUCUCAACCAGAAAGUCUGUAAUCAUUUUAAGGGUA [A94U G106U] yielded a self-cleavage of 0.01.
In the case of GUUAACGGUCAUAGGCCAUGGAAACUAGGAGCACCAUUUCGCUGCCAGUGAAGAAAUGAACAAAGAAAAUCUGGGCCAGGCAGGCAUCAAAAGUAAUAGUCUUGCGCUCAACCAGAAAGUCUGUAAUCUUUUUAAGGGUA [A94U A129U], the self-cleavage is reported as 1.22.
With GUUAACGGUCAUAGGCCAUGGAAACUAGGAGCACCAUUUCGCUGCCAGUGAAGAAAUGAACAAAGAAAAUCUGGGCCAGGCAGGCAUCAAAAGGAAUAGUCUUGCGCUCAACCAGAAAGUCUGUAAUCAAUUUAAGGGUA [A94G U130A] the self-cleavage was 1.41.
Work on GUUAACGGUCAUAGGCCAUGGAAACUAGGAGCACCAUUUCGCUGCCAGUGAAGAAAUGAACAAAGAAAAUCUGGGCCAGGCAGGCAUCAAAAGGAAUAGUCUUGCGCUCAACCAGAAAGUCUGUAAUCACUUUAAGGGUA [A94G U130C] yielded a self-cleavage of 1.16.
With GUUAACGGUCAUAGGCCAUGGAAACUAGGAGCACCAUUUCGCUGCCAGUGAAGAAAUGAACAAAGAAAAUCUGGGCCAGGCAGGCAUCAAAAGUAAUAGUCUUGCGCUCAACCAGAAAGACUGUAAUCAUUUUAAGGGUA [A94U U120A] the self-cleavage was 2.18.
GUUAACGGUCAUAGGCCAUGGAAACUAGGAGCACCAUUUCGCUGCCAGUGAAGAAAUGAACAAAGAAAAUCUGGGCCAGGCAGGCAUCAAAAGGAAUAGUCUUGCGCACAACCAGAAAGUCUGUAAUCAUUUUAAGGGUA [A94G U108A] gave a self-cleavage of 0.01.
With GUUAACGGUCAUAGGCCAUGGAAACUAGGAGCACCAUUUCGCUGCCAGUGAAGAAAUGAACAAAGAAAAUCUGGGCCAGGCAGGCAUCAAAAGUAAUAGUCUUGCGCUCAACCAGGAAGUCUGUAAUCAUUUUAAGGGUA [A94U A116G] the self-cleavage was 0.48.
For GUUAACGGUCAUAGGCCAUGGAAACUAGGAGCACCAUUUCGCUGCCAGUGAAGAAAUGAACAAAGAAAAUCUGGGCCAGGCAGGCAUCAAAAGUAAUAGUCUUGCGCUCAACCAGCAAGUCUGUAAUCAUUUUAAGGGUA [A94U A116C], the self-cleavage was 0.07.
GUUAACGGUCAUAGGCCAUGGAAACUAGGAGCACCAUUUCGCUGCCAGUGAAGAAAUGAACAAAGAAAAUCUGGGCCAGGCAGGCAUCAAAAGACAUAGUCUUGCGCUCGACCAGAAAGUCUGUAAUCAUUUUAAGGGUA [A95C A110G] gave a self-cleavage of 0.16.
In the case of GUUAACGGUCAUAGGCCAUGGAAACUAGGAGCACCAUUUCGCUGCCAGUGAAGAAAUGAACAAAGAAAAUCUGGGCCAGGCAGGCAUCAAAAGUAAUAGUCUUGCGCUCAACCAGAAAGUCUGUAGUCAUUUUAAGGGUA [A94U A126G], the self-cleavage is reported as 1.84.
GUUAACGGUCAUAGGCCAUGGAAACUAGGAGCACCAUUUCGCUGCCAGUGAAGAAAUGAACAAAGAAAAUCUGGGCCAGGCAGGCAUCAAAAGGAAUAGUCUUGCGCUCAACCAGAAAGUCUGUAAUCAUUUUAUGGGUA [A94G A135U] showed a self-cleavage of 1.8.
GUUAACGGUCAUAGGCCAUGGAAACUAGGAGCACCAUUUCGCUGCCAGUGAAGAAAUGAACAAAGAAAAUCUGGGCCAGGCAGGCAUCAAAAGGAAUAGCCUUGCGCUCAACCAGAAAGUCUGUAAUCAUUUUAAGGGUA [A94G U100C] showed a self-cleavage of 2.37.
GUUAACGGUCAUAGGCCAUGGAAACUAGGAGCACCAUUUCGCUGCCAGUGAAGAAAUGAACAAAGAAAAUCUGGGCCAGGCAGGCAUCAAAAGGAAUAGUCUAGCGCUCAACCAGAAAGUCUGUAAUCAUUUUAAGGGUA [A94G U103A] gave a self-cleavage of 0.39.
Work on GUUAACGGUCAUAGGCCAUGGAAACUAGGAGCACCAUUUCGCUGCCAGUGAAGAAAUGAACAAAGAAAAUCUGGGCCAGGCAGGCAUCAAAAGGAAUAGUCUGGCGCUCAACCAGAAAGUCUGUAAUCAUUUUAAGGGUA [A94G U103G] yielded a self-cleavage of 0.03.
Variant GUUAACGGUCAUAGGCCAUGGAAACUAGGAGCACCAUUUCGCUGCCAGUGAAGAAAUGAACAAAGAAAAUCUGGGCCAGGCAGGCAUCAAAAGGAAUAGUCUCGCGCUCAACCAGAAAGUCUGUAAUCAUUUUAAGGGUA [A94G U103C] has a self-cleavage of 0.69.
GUUAACGGUCAUAGGCCAUGGAAACUAGGAGCACCAUUUCGCUGCCAGUGAAGAAAUGAACAAAGAAAAUCUGGGCCAGGCAGGCAUCAAAAGUAAUAGUCUUGCGCUCAACCAGAAAGUCUGUAACCAUUUUAAGGGUA [A94U U127C] showed a self-cleavage of 1.21.
